Earlier results on one substance are cited in paper PMC7538161.

The data set deals with CaMKII calmodulin-binding element peptide (Peptide A) calmodulin-binding element peptide (Homo sapiens) (UniProt Q9UQM7).
Chain of CaMKII calmodulin-binding element peptide (Peptide A) calmodulin-binding element peptide (Homo sapiens) (Q9UQM7 290-309): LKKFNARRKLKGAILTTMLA

Chain of CaMKII hub hub domain (Q9UQM7 345-475): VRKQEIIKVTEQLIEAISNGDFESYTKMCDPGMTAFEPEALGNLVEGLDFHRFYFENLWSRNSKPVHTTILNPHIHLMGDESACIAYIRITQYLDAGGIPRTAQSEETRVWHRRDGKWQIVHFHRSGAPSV

As usually defined, the Kd is a measure of binding affinity in units of concentration. “CaMKII hub hub domain (from UniProt Q9UQM7)”: the Kd is 90 µM.
